What is called Km is the concentration of substrate that gives half-maximal velocity. The term kcat denotes the number of substrate molecules converted per active site and unit of time at saturation. As a reminder, the kcat/Km is the turnover number divided by the Michaelis constant.

The results in this text go back to publication PMC3864932, “Identification of Crucial Amino Acids in Mouse Aldehyde Oxidase 3 That Determine Substrate Specificity” (PLoS ONE, 2013).

Common to all, as to assay: purified protein
Common to all, as to assay type: biochemical, Mus musculus
Common to all, as to settings: 100 µM DCPIP as electron acceptor, 50 mM Tris-HCl pH 8.0, 1 mM EDTA, 37 °C, kcat corrected for Mo content

Substrate in series [1]: O=Cc1ccccc1
Substrate in series [2]: O=c1[nH]cnc2nc[nH]c12
Substrate in series [3]: Oc1ncnc2[nH]ncc12

B1: mAOX3 (mouse aldehyde oxidase 3) (Mus musculus; F1014I) (protein)
chain: MSPSKESDELIFFVNGKKVTERNADPEVNLLFYLRKVIRLTGTKYGCGGGDCGACTVMISRYDPISKRISHFSATACLVPICSLHGAAVTTVEGIGSTKTRIHPVQERIAKGHGTQCGFCTPGMVMSIYTLLRNHPEPSTEQIMETLGGNLCRCTGYRPIVESAKSFCPSSTCCQMNGEGKCCLDEEKNEPERKNSVCTKLYEKKEFQPLDPTQELIFPPELMRMAEESQNTVLTFRGERTTWIAPGTLNDLLELKMKHPSAPLVIGNTYLGLHMKFTDVSYPIIISPARILELFVVTNTKQGLTLGAGLSLTQVKNVLSDVVSRLPKEKTQIYCALLKQLKTLAGQQIRNVASLGGHIISRLPTSDLNPILGIGNCILNVASTEGIQQIPLNDHFLAGVPDAILKPEQVLISVFVPRSSKWEFVSAFRQAPRQQNAFATVNAGMKVVFKEDTNTITDLGILYGGIGATVISADKSCRQLIGRCWDEEMLDDAGKMICEEVSLLMAAPGGMEEYRKTLAISFLFMFYLDVLKQLKTRDPHKYPDISQKLLHILEDFPLTMPYGMQSFQDVDFQQPLQDPIGRPIMHQSGIKHATGEAVFCDDMSVLPGELFLAVVTSSKSHAKIISLDASEALASLGVVDVVTARDVPGDNGREEESLYAQDEVICVGQIVCAVAADSYAHAQQAAKKVKIVYQDIEPMIVTVQDALQYESFIGPERKLEQGNVEEAFQCADQILEGEVHLGGQEHFYMETQSVRVVPKGEDKEMDIYVSSQDAAFTQEMVARTLGIPKNRINCHVKRVGGAFGGKASKPGLLASVAAVAAQKTGRPIRFILERRDDMLITGGRHPLLGKYKIGFMNNGKIKAADIQLYINGGCTPDDSELVIEYALLKLENAYKIPNLRVRGRVCKTNLPSNTAFRGFGFPQGAFVTETCMSAVAAKCRLPPEKVRELNMYRTIDRTIHNQEFDPTNLLQCWEACVENSSYYNRKKAVDEFNQQRFWKKRGIAIIPMKFSVGIPKTFYYQAAALVQIYTDGSVLVAHGGVELGQGINTKMIQVASRELKIPMSYIHLDEMSTVTVPNTVTTGASTGADVNGRAVQNACQILMKRLEPIIKQNPSGTWEEWVKEAFVQSISLSATGYFRGYQADMDWEKGEGDIFPYFVFGAACSEVEIDCLTGAHKNIRTDIVMDGSFSINPAVDIGQIEGAFVQGLGLYTLEELKYSPEGVLYTRGPHQYKIASVTDIPEEFHVSLLTPTPNPKAIYSSKGLGEAGTFLGCSVFFAIAAAVAAAREERGLSPIWAINSPATAEVIRMACEDQFTNLVPQTDSKCCKPWSIPVA
notes: N-terminal His6-tag, full length, plasmid pMMA1, expressed in E. coli; homodimer with Moco, two [2Fe-2S], FAD
Turning to B1, in “purified protein [1]”, the Km is 22.7 ± 2.7 µM, the kcat turned out to be 0.317 ± 0.05 s⁻¹ and the kcat/Km amounted to 13300 ± 3330 M⁻¹ s⁻¹.

B2: mAOX3 (mouse aldehyde oxidase 3) (Mus musculus; A807E/D878L/F776K/K889H/L881S/P1015T/Y1019L/Y885R) (protein)
chain: MSPSKESDELIFFVNGKKVTERNADPEVNLLFYLRKVIRLTGTKYGCGGGDCGACTVMISRYDPISKRISHFSATACLVPICSLHGAAVTTVEGIGSTKTRIHPVQERIAKGHGTQCGFCTPGMVMSIYTLLRNHPEPSTEQIMETLGGNLCRCTGYRPIVESAKSFCPSSTCCQMNGEGKCCLDEEKNEPERKNSVCTKLYEKKEFQPLDPTQELIFPPELMRMAEESQNTVLTFRGERTTWIAPGTLNDLLELKMKHPSAPLVIGNTYLGLHMKFTDVSYPIIISPARILELFVVTNTKQGLTLGAGLSLTQVKNVLSDVVSRLPKEKTQIYCALLKQLKTLAGQQIRNVASLGGHIISRLPTSDLNPILGIGNCILNVASTEGIQQIPLNDHFLAGVPDAILKPEQVLISVFVPRSSKWEFVSAFRQAPRQQNAFATVNAGMKVVFKEDTNTITDLGILYGGIGATVISADKSCRQLIGRCWDEEMLDDAGKMICEEVSLLMAAPGGMEEYRKTLAISFLFMFYLDVLKQLKTRDPHKYPDISQKLLHILEDFPLTMPYGMQSFQDVDFQQPLQDPIGRPIMHQSGIKHATGEAVFCDDMSVLPGELFLAVVTSSKSHAKIISLDASEALASLGVVDVVTARDVPGDNGREEESLYAQDEVICVGQIVCAVAADSYAHAQQAAKKVKIVYQDIEPMIVTVQDALQYESFIGPERKLEQGNVEEAFQCADQILEGEVHLGGQEHFYMETQSVRVVPKGEDKEMDIYVSSQDAAKTQEMVARTLGIPKNRINCHVKRVGGAFGGKESKPGLLASVAAVAAQKTGRPIRFILERRDDMLITGGRHPLLGKYKIGFMNNGKIKAADIQLYINGGCTPDLSESVIERALLHLENAYKIPNLRVRGRVCKTNLPSNTAFRGFGFPQGAFVTETCMSAVAAKCRLPPEKVRELNMYRTIDRTIHNQEFDPTNLLQCWEACVENSSYYNRKKAVDEFNQQRFWKKRGIAIIPMKFSVGFTKTFLYQAAALVQIYTDGSVLVAHGGVELGQGINTKMIQVASRELKIPMSYIHLDEMSTVTVPNTVTTGASTGADVNGRAVQNACQILMKRLEPIIKQNPSGTWEEWVKEAFVQSISLSATGYFRGYQADMDWEKGEGDIFPYFVFGAACSEVEIDCLTGAHKNIRTDIVMDGSFSINPAVDIGQIEGAFVQGLGLYTLEELKYSPEGVLYTRGPHQYKIASVTDIPEEFHVSLLTPTPNPKAIYSSKGLGEAGTFLGCSVFFAIAAAVAAAREERGLSPIWAINSPATAEVIRMACEDQFTNLVPQTDSKCCKPWSIPVA
notes: as for B1
As to B2, the Km in “purified protein [2]” worked out at 4085 ± 227 µM; in “purified protein [1]”, 2122 ± 88 µM; in “purified protein [3]”, 133 ± 10 µM. Further, the figures for the kcat in the series “purified protein [2]”, in “purified protein [1]” and in “purified protein [3]” were 0.417 ± 0.0167 s⁻¹, 3.9 ± 0.25 s⁻¹ and 1.58 ± 0.1 s⁻¹, respectively. Also, the results for the kcat/Km in “purified protein [2]”, in the series “purified protein [1]” and in “purified protein [3]” were 104 ± 8 M⁻¹ s⁻¹, 1830 ± 133 M⁻¹ s⁻¹ and 12000 ± 1120 M⁻¹ s⁻¹, respectively.

B3: mAOX3 (mouse aldehyde oxidase 3) (Mus musculus; A807E/D878L/F776K/L881S/P1015T/Y1019L/Y885R) (protein)
chain: MSPSKESDELIFFVNGKKVTERNADPEVNLLFYLRKVIRLTGTKYGCGGGDCGACTVMISRYDPISKRISHFSATACLVPICSLHGAAVTTVEGIGSTKTRIHPVQERIAKGHGTQCGFCTPGMVMSIYTLLRNHPEPSTEQIMETLGGNLCRCTGYRPIVESAKSFCPSSTCCQMNGEGKCCLDEEKNEPERKNSVCTKLYEKKEFQPLDPTQELIFPPELMRMAEESQNTVLTFRGERTTWIAPGTLNDLLELKMKHPSAPLVIGNTYLGLHMKFTDVSYPIIISPARILELFVVTNTKQGLTLGAGLSLTQVKNVLSDVVSRLPKEKTQIYCALLKQLKTLAGQQIRNVASLGGHIISRLPTSDLNPILGIGNCILNVASTEGIQQIPLNDHFLAGVPDAILKPEQVLISVFVPRSSKWEFVSAFRQAPRQQNAFATVNAGMKVVFKEDTNTITDLGILYGGIGATVISADKSCRQLIGRCWDEEMLDDAGKMICEEVSLLMAAPGGMEEYRKTLAISFLFMFYLDVLKQLKTRDPHKYPDISQKLLHILEDFPLTMPYGMQSFQDVDFQQPLQDPIGRPIMHQSGIKHATGEAVFCDDMSVLPGELFLAVVTSSKSHAKIISLDASEALASLGVVDVVTARDVPGDNGREEESLYAQDEVICVGQIVCAVAADSYAHAQQAAKKVKIVYQDIEPMIVTVQDALQYESFIGPERKLEQGNVEEAFQCADQILEGEVHLGGQEHFYMETQSVRVVPKGEDKEMDIYVSSQDAAKTQEMVARTLGIPKNRINCHVKRVGGAFGGKESKPGLLASVAAVAAQKTGRPIRFILERRDDMLITGGRHPLLGKYKIGFMNNGKIKAADIQLYINGGCTPDLSESVIERALLKLENAYKIPNLRVRGRVCKTNLPSNTAFRGFGFPQGAFVTETCMSAVAAKCRLPPEKVRELNMYRTIDRTIHNQEFDPTNLLQCWEACVENSSYYNRKKAVDEFNQQRFWKKRGIAIIPMKFSVGFTKTFLYQAAALVQIYTDGSVLVAHGGVELGQGINTKMIQVASRELKIPMSYIHLDEMSTVTVPNTVTTGASTGADVNGRAVQNACQILMKRLEPIIKQNPSGTWEEWVKEAFVQSISLSATGYFRGYQADMDWEKGEGDIFPYFVFGAACSEVEIDCLTGAHKNIRTDIVMDGSFSINPAVDIGQIEGAFVQGLGLYTLEELKYSPEGVLYTRGPHQYKIASVTDIPEEFHVSLLTPTPNPKAIYSSKGLGEAGTFLGCSVFFAIAAAVAAAREERGLSPIWAINSPATAEVIRMACEDQFTNLVPQTDSKCCKPWSIPVA
notes: as for B1
For B3, in the series “purified protein [3]”, the Km is 2933 ± 380 µM, the catalytic constant (kcat) was determined as 0.233 ± 0.0167 s⁻¹ and the kcat/Km worked out at 83.3 ± 16.7 M⁻¹ s⁻¹.

B4: mAOX3 (mouse aldehyde oxidase 3) (Mus musculus; A807E/D878L/F776K/G1013S/K1016V/K889H/L881S/P1015T/S1011G/V1012I/Y1019L/Y1020N/Y885R) (protein)
chain: MSPSKESDELIFFVNGKKVTERNADPEVNLLFYLRKVIRLTGTKYGCGGGDCGACTVMISRYDPISKRISHFSATACLVPICSLHGAAVTTVEGIGSTKTRIHPVQERIAKGHGTQCGFCTPGMVMSIYTLLRNHPEPSTEQIMETLGGNLCRCTGYRPIVESAKSFCPSSTCCQMNGEGKCCLDEEKNEPERKNSVCTKLYEKKEFQPLDPTQELIFPPELMRMAEESQNTVLTFRGERTTWIAPGTLNDLLELKMKHPSAPLVIGNTYLGLHMKFTDVSYPIIISPARILELFVVTNTKQGLTLGAGLSLTQVKNVLSDVVSRLPKEKTQIYCALLKQLKTLAGQQIRNVASLGGHIISRLPTSDLNPILGIGNCILNVASTEGIQQIPLNDHFLAGVPDAILKPEQVLISVFVPRSSKWEFVSAFRQAPRQQNAFATVNAGMKVVFKEDTNTITDLGILYGGIGATVISADKSCRQLIGRCWDEEMLDDAGKMICEEVSLLMAAPGGMEEYRKTLAISFLFMFYLDVLKQLKTRDPHKYPDISQKLLHILEDFPLTMPYGMQSFQDVDFQQPLQDPIGRPIMHQSGIKHATGEAVFCDDMSVLPGELFLAVVTSSKSHAKIISLDASEALASLGVVDVVTARDVPGDNGREEESLYAQDEVICVGQIVCAVAADSYAHAQQAAKKVKIVYQDIEPMIVTVQDALQYESFIGPERKLEQGNVEEAFQCADQILEGEVHLGGQEHFYMETQSVRVVPKGEDKEMDIYVSSQDAAKTQEMVARTLGIPKNRINCHVKRVGGAFGGKESKPGLLASVAAVAAQKTGRPIRFILERRDDMLITGGRHPLLGKYKIGFMNNGKIKAADIQLYINGGCTPDLSESVIERALLHLENAYKIPNLRVRGRVCKTNLPSNTAFRGFGFPQGAFVTETCMSAVAAKCRLPPEKVRELNMYRTIDRTIHNQEFDPTNLLQCWEACVENSSYYNRKKAVDEFNQQRFWKKRGIAIIPMKFGISFTVTFLNQAAALVQIYTDGSVLVAHGGVELGQGINTKMIQVASRELKIPMSYIHLDEMSTVTVPNTVTTGASTGADVNGRAVQNACQILMKRLEPIIKQNPSGTWEEWVKEAFVQSISLSATGYFRGYQADMDWEKGEGDIFPYFVFGAACSEVEIDCLTGAHKNIRTDIVMDGSFSINPAVDIGQIEGAFVQGLGLYTLEELKYSPEGVLYTRGPHQYKIASVTDIPEEFHVSLLTPTPNPKAIYSSKGLGEAGTFLGCSVFFAIAAAVAAAREERGLSPIWAINSPATAEVIRMACEDQFTNLVPQTDSKCCKPWSIPVA
notes: as for B1
On to B4, for which, in the series “purified protein [2]”, the Km came out at 1736 ± 155 µM, the kcat came to 0.0833 s⁻¹ and the kcat/Km turned out to be 47.8 ± 5.83 M⁻¹ s⁻¹. In “purified protein [3]”, the Km was found to be 620 ± 16 µM, the kcat was 0.65 ± 0.05 s⁻¹ and the kcat/Km was 1050 ± 83.3 M⁻¹ s⁻¹.
